Experiments:
PKC-α (purified isoform) [1] = target: T1, PKC-α (purified isoform) (Homo sapiens (Human), UniProt P17252 2-672); experiment: competitive ELISA, coated purified PKC-α, vs anti-PKC α (SC-208); PRE 50 µM
T1 construct: also called purified PKC-alpha; commercially purified PKC-alpha
Method: (§1) Greiner 96 well ELISA plates were coated with the appropriate PKC isoform diluted in PBSN (PBS with Calcium/Magnesium+0.05% Sodium azide w/w). 50 μL/well at 250 ng/mL was used. Control wells contained PBSN only. Plates were incubated overnight at 4° C.
(§2) The plates were washed 3 times with 200 μL of dH₂O per well, then 100 μL of blocking solution was added per well and the plate incubated for 1 h at 37° C. The washing steps with dH₂O were repeated and 50 μL of the appropriate PRE solution (PRE stock solution [20 mM in DMSO] diluted in PBSN) was added and the plate incubated for 1 h at room temperature.
(§3) 50 μL of 1:1000 dilution of Alkaline Phosphatase (AP) conjugated antibody (anti-rabbit for all except zeta, which was anti-goat) was then added and the plate incubated for 1 h at room temperature. Washing with dH₂O was then repeated. Finally, 100 μL of pNPP solution in pNPP buffer (2 mM MgCl₂, 100 mM Sodium bicarbonate in water, pH 9.8) was added to all wells and incubated for 8 minutes for α, βI, βII ε, and ζ, or for 15-20 mins for δ (until sufficient coloration is observed). The reaction was stopped by addition of Stop solution (2N NaOH) and the absorbance at 405 nm was read on a Galaxy Plate reader.

PKC-α (purified isoform) [2] = target: T1, PKC-α (purified isoform); experiment: competitive ELISA, coated purified PKC-α, vs anti-PKC α (SC-208); PRE 200 µM
Method: as §1, §2, §3

PKC-δ (purified isoform) [3] = target: T2, PKC-δ (purified isoform); experiment: competitive ELISA, coated purified PKC-δ, vs anti-PKC δ (SC-213); PRE 100 µM
T2 construct: also called PKC-delta
T2 sequence (Q05655 whole entry, stated change not applied, canonical isoform): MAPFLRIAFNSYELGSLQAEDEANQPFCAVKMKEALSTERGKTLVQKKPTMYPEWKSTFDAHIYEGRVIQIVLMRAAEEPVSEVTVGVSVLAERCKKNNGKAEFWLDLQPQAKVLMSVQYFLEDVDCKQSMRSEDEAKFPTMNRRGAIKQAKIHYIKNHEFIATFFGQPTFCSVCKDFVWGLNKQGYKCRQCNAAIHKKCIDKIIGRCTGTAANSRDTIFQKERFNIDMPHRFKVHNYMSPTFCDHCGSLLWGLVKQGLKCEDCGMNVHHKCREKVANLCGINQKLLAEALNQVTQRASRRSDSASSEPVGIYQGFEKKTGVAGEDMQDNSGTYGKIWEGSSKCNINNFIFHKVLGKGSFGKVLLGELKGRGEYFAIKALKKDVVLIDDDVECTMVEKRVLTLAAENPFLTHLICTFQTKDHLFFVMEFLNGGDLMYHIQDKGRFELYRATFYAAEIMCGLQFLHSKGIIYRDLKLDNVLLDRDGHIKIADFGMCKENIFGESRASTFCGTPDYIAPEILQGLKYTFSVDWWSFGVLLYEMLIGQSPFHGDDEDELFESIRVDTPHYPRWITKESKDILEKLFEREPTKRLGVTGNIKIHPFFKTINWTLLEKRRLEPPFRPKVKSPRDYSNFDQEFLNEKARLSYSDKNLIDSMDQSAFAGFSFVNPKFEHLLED
Method: as §1, §2, §3

PKC-δ (purified isoform) [4] = target: T2, PKC-δ (purified isoform); experiment: competitive ELISA, coated purified PKC-δ, vs anti-PKC δ (SC-213); PRE 200 µM
Method: as §1, §2, §3

[5] = target: T3, PKC-βI (purified isoform) (Homo sapiens (Human), UniProt P05771 2-671); experiment: competitive ELISA, coated purified PKC-βI, vs anti-PKC βI (SC-209); PRE 100 µM
T3 construct: also called PKC-beta I; PKC beta 1
T3 sequence (P05771 2-671 limits assumed): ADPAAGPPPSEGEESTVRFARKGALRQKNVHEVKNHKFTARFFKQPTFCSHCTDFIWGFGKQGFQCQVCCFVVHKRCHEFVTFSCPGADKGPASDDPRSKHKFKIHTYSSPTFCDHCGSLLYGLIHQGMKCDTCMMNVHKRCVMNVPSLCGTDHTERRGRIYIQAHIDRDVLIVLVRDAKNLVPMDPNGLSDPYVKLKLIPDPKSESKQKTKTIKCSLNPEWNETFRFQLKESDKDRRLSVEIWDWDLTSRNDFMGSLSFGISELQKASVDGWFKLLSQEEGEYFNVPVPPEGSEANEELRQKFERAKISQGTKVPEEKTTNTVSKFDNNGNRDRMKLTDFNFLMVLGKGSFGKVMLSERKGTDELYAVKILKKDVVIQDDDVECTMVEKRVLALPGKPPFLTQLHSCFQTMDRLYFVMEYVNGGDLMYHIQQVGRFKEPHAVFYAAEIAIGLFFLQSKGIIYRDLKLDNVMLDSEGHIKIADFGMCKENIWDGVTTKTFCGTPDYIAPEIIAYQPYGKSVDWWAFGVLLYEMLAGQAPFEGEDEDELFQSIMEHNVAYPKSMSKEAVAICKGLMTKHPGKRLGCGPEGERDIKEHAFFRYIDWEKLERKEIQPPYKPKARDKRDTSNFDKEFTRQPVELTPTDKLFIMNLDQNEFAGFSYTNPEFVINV
Method: as §1, §2, §3

[6] = target: T3, PKC-βI (purified isoform); experiment: competitive ELISA, coated purified PKC-βI, vs anti-PKC βI (SC-209); PRE 200 µM
Method: as §1, §2, §3

[7] = target: T4, PKC-βII (purified isoform) (Homo sapiens (Human), UniProt P05771 2-621); experiment: competitive ELISA, coated purified PKC-βII, vs anti-PKC βII (SC-210); PRE 50 µM
T4 construct: also called PKC-beta II; PKC beta 2
T4 sequence (P05771 other isoform, or with tags, fused parts or gaps limits assumed): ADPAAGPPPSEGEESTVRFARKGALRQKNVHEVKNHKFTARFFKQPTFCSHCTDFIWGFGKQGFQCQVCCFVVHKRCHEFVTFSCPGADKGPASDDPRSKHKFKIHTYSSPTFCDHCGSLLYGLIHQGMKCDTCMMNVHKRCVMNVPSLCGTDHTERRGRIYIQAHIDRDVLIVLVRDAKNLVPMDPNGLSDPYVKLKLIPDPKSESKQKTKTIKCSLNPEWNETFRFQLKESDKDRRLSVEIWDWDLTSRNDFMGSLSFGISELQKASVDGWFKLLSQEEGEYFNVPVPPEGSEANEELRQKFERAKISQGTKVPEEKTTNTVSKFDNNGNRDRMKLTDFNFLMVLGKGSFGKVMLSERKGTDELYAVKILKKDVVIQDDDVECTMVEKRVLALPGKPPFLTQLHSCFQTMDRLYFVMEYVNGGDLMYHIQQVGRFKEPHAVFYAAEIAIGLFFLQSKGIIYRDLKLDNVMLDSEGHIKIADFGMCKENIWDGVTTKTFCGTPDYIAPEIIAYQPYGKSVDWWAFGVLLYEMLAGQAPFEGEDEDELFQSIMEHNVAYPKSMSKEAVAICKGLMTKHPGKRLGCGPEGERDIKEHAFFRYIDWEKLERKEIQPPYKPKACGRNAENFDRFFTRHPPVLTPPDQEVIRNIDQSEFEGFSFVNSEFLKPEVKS
Method: as §1, §2, §3

[8] = target: T4, PKC-βII (purified isoform); experiment: competitive ELISA, coated purified PKC-βII, vs anti-PKC βII (SC-210); PRE 200 µM
Method: as §1, §2, §3

[9] = target: T5, PKC-ε (endogenous, IMR-32 lysate) (human, UniProt Q02156 1-737); experiment: WB competition Protocol B, IMR-32 extract, vs anti-PKC-ε Ab; PKC-ε Band 2; 50 µg peptide
T5 construct: Band 1 and Band 2 (alternate splicing variants, not identified further) are kept under one molecule; the band is named in the assay field of each row; also called PKC-epsilon; PKC-ε Band 1
T5 sequence (looked up): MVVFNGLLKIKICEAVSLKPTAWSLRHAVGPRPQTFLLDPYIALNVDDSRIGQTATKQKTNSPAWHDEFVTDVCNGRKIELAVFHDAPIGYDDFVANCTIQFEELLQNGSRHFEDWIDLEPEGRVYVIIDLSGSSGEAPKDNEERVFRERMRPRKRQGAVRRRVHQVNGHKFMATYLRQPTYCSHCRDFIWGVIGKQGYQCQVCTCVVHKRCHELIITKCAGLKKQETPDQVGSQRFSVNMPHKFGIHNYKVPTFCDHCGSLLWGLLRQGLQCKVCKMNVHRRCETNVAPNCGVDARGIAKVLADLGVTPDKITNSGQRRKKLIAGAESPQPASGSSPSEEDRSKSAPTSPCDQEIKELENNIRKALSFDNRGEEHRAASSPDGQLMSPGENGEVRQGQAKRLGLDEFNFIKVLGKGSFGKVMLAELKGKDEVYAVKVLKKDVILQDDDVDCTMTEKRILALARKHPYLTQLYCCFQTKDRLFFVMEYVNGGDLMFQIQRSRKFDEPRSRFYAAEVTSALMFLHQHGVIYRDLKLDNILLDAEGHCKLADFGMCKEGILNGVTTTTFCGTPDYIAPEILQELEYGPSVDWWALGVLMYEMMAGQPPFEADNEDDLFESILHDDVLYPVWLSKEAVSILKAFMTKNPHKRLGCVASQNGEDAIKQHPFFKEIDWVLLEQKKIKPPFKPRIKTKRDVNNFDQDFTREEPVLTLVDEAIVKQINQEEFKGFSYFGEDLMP
Method: (§4) The ability of the peptides PRE 2 and PRE 3 (see Table 4) to interfere with the binding of a PKC-α-specific polyclonal antibody (Santa Cruz Biotechnology, Inc.) to PKC-α was determined using a modified version of the protocol outlined above in which the test peptide was added directly to the cell extract prior to electrophoresis at a concentration of either 5× or 15× the concentration of the protein applied to each well of the gel for the Western blots (20 μg).
(§5) Peptides PRE 2, PRE 3 and PRE 4 (see Table 4) were tested for their ability to interfere with the binding of isoform-specific polyclonal antibodies (Santa Cruz Biotechnology, Inc.) to […] using the general protocol described in Example 3. Two bands, representing alternate splicing variants of PKC-ε, were identified on the Western blot using this anti-PKC-ε antibody.

[10] = target: T5, PKC-ε (endogenous, IMR-32 lysate); experiment: WB competition Protocol B, IMR-32 extract, vs anti-PKC-ε Ab; PKC-ε Band 1; 100 µg peptide
Method: as §4, §5

[11] = target: T5, PKC-ε (endogenous, IMR-32 lysate); experiment: WB competition Protocol B, IMR-32 extract, vs anti-PKC-ε Ab; PKC-ε Band 2; 100 µg peptide
Method: as §4, §5

- relative binding capacity (100-%n, DMSO subtracted) (PKC-α (purified isoform) [1]): 6.46%
- relative binding capacity (100-%n, DMSO subtracted) (PKC-α (purified isoform) [2]): 22.8%
- relative binding capacity (100-%n, DMSO subtracted) (PKC-δ (purified isoform) [3]): 30.7%
- relative binding capacity (100-%n, DMSO subtracted) (PKC-δ (purified isoform) [4]): 17.3%
- relative binding capacity (100-%n, DMSO subtracted) [5]: 15.7%
- relative binding capacity (100-%n, DMSO subtracted) [6]: 7.46%
- relative binding capacity (100-%n, DMSO subtracted) [7]: 2.69%
- relative binding capacity (100-%n, DMSO subtracted) [8]: 1.18%
- Band Intensity [9]: 0
- Inhibition (%) [9]: 100%
- Relative Intensity (%) [9]: 0%
- Band Intensity [10]: 0
- Inhibition (%) [10]: 100%
- Relative Intensity (%) [10]: 0%
- Band Intensity [11]: 0
- Inhibition (%) [11]: 100%
- Relative Intensity (%) [11]: 0%
Binder: Ac-KDAQNLIGISI-NH2 (also called peptide PRE 4) [PRE 4]
